Test results reported in patent US6951972.

Test system: Ac transposase (Zea mays)
Assay: cell_activity
Settings: Ds excision from test plasmid in wheat immature embryos; 0 without transposase plasmid

Ds-Ubi-bar element (254 bp Ds 5' and 320 bp Ds 3' ends)
activity (blue spots per embryo): 61
